Values quoted from earlier work in publication PMC3930637.

Biological target: HIV-1 capsid (CA) CA (Human immunodeficiency virus 1) (UniProt O93182)
Sequence (O93182 133-363): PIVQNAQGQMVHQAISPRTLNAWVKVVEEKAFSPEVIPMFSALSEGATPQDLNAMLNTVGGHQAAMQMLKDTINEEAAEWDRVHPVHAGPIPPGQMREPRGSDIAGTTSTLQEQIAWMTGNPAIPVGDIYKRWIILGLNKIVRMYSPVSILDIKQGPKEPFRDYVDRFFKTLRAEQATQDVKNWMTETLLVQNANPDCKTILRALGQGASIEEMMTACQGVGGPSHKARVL

Chain of Nup358 cyclophilin homology domain (P49792 3067-3223): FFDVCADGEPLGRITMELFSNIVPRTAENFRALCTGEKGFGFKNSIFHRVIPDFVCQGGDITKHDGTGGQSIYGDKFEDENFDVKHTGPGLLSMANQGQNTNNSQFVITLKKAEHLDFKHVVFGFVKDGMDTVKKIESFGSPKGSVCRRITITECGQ

Nup358 cyclophilin homology domain (from UniProt P49792)
Kd: 94 µM
